The text below walks through data of article PMC10681739, “High-throughput data and modeling reveal insights into the mechanisms of cooperative DNA-binding by transcription factor proteins”.

Residue numbers refer to the chain shown, from its start.

This series concerns the target RUNX1 (Homo sapiens, UniProt Q01196). In words: gcPBM; 2 nM RUNX1. As to conditions: tags: N-terminal GST (pDEST15), kept (PMC6008103); label: surface-attached array probe.

Chain of RUNX1 (Q01196 whole entry): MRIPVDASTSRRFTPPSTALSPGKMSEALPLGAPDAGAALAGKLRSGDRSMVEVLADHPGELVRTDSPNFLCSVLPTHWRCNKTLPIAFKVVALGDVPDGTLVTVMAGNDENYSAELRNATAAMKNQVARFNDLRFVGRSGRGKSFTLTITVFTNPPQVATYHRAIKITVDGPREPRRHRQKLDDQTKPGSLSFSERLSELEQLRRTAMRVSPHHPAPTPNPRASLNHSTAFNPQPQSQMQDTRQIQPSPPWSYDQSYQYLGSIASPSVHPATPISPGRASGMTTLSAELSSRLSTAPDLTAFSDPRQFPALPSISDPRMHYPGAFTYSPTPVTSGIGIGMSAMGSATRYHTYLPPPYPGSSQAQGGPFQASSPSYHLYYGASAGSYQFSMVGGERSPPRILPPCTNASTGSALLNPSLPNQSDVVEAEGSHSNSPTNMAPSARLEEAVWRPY

B1: Table S3 B row 1694 (dsDNA)
DNA 1: CTGCAAACCACAAAACACCTGACTGCTACGTAAGAT
DNA 2: ATCTTACGTAGCAGTCAGGTGTTTTGTGGTTTGCAG
Take B1: the binding signal is 9300 PBM fluorescence, median of replicate spots.

B2: Table S3 B row 518 (dsDNA)
DNA 1: GACCCACTGCGGTCATGCTGCTCCCTGCCCAACCCG
DNA 2: CGGGTTGGGCAGGGAGCAGCATGACCGCAGTGGGTC
On to B2, for which the binding signal was 6470 PBM fluorescence, median of replicate spots.

B3: Table S3 B row 730 (dsDNA)
DNA 1: GTGCCTGACCACAAACCAACATTGCCTGTCTCAATT
DNA 2: AATTGAGACAGGCAATGTTGGTTTGTGGTCAGGCAC
Turning to B3, the binding signal is 6950 PBM fluorescence, median of replicate spots.

B4: Table S3 B row 3404 (dsDNA)
DNA 1: TTGGTCTTGTGGTTTTGCAAGGCAGGGGTGATATAT
DNA 2: ATATATCACCCCTGCCTTGCAAAACCACAAGACCAA
Consider B4, for which the binding signal was 8240 PBM fluorescence, median of replicate spots.

B5: Table S3 B row 1595 (dsDNA)
DNA 1: CAGTAGGCTGCGGTTGCGCGCGCCGGGTGTGGGCCC
DNA 2: GGGCCCACACCCGGCGCGCGCAACCGCAGCCTACTG
For B5, the binding signal is 5670 PBM fluorescence, median of replicate spots.

B6: Table S3 B row 2175 (dsDNA)
DNA 1: AAATCAAAACCACAATCAGATACCACTTGCTGCCCA
DNA 2: TGGGCAGCAAGTGGTATCTGATTGTGGTTTTGATTT
For B6, the binding signal was 6180 PBM fluorescence, median of replicate spots.

B7: Table S3 B row 2650 (dsDNA)
DNA 1: CTCCTGGGCTTGTGGTTAGAGCATCATGCAGCAAGG
DNA 2: CCTTGCTGCATGATGCTCTAACCACAAGCCCAGGAG
Turning to B7, the binding signal is 6170 PBM fluorescence, median of replicate spots.

B8: Table S3 B row 875 (dsDNA)
DNA 1: B7 DNA 1 with G21A, C25G, A26C, G35A
DNA 2: B7 DNA 2 with C2T, T11G, G12C, C16T
Consider B8, for which the binding signal is 6070 PBM fluorescence, median of replicate spots.

B9: Table S3 B row 2560 (dsDNA)
DNA 1: TGAGGTTGTGGTTAGGCAGGACGAAGCCGTTTGTAG
DNA 2: CTACAAACGGCTTCGTCCTGCCTAACCACAACCTCA
As to B9, the binding signal was 7390 PBM fluorescence, median of replicate spots.

B10: Table S3 B row 1550 (dsDNA)
DNA 1: TGACCTTTGTGGTTTGGTCAGCAAGTGGGGTACTGG
DNA 2: CCAGTACCCCACTTGCTGACCAAACCACAAAGGTCA
On to B10, for which the binding signal was 9070 PBM fluorescence, median of replicate spots.

B11: Table S3 B row 2387 (dsDNA)
DNA 1: CATTTCTGTTGCGGTTGGCAGCGTCTCCATCCACGG
DNA 2: CCGTGGATGGAGACGCTGCCAACCGCAACAGAAATG
For the molecule B11, the binding signal was 12200 PBM fluorescence, median of replicate spots.

B12: Table S3 B row 2477 (dsDNA)
DNA 1: GGTGCGGTTAAGGCGAGGCTCCTTCTTTACTGTGAC
DNA 2: GTCACAGTAAAGAAGGAGCCTCGCCTTAACCGCACC
Turning to B12, the binding signal is 6190 PBM fluorescence, median of replicate spots.

B13: Table S3 B row 1223 (dsDNA)
DNA 1: ACTGCTCAAACCACAAACGATAGCAGCAAAGGCCTG
DNA 2: CAGGCCTTTGCTGCTATCGTTTGTGGTTTGAGCAGT
Regarding B13, the binding signal is 6810 PBM fluorescence, median of replicate spots.

B14: Table S3 B row 1255 (dsDNA)
DNA 1: GTCCAACCGCAGCCAGGCAAGCACACCCTGCCCCAC
DNA 2: GTGGGGCAGGGTGTGCTTGCCTGGCTGCGGTTGGAC
With B14, the binding signal is 8530 PBM fluorescence, median of replicate spots.

B15: Table S3 B row 871 (dsDNA)
DNA 1: ATGACCGATCAACCGCAAAGGCCGGGAATGCGTCAG
DNA 2: CTGACGCATTCCCGGCCTTTGCGGTTGATCGGTCAT
With B15, the binding signal is 7280 PBM fluorescence, median of replicate spots.

B16: Table S3 B row 378 (dsDNA)
DNA 1: GCCTGCGGTTTGGGTGCTGTGACCGTACGGGGGCGG
DNA 2: CCGCCCCCGTACGGTCACAGCACCCAAACCGCAGGC
On to B16, for which the binding signal was 10500 PBM fluorescence, median of replicate spots.

B17: Table S3 B row 2123 (dsDNA)
DNA 1: CTCTGAACGTCCTCTCTTTTAACCACAACTTACTAC
DNA 2: GTAGTAAGTTGTGGTTAAAAGAGAGGACGTTCAGAG
Regarding B17, the binding signal is 10800 PBM fluorescence, median of replicate spots.

B18: Table S3 B row 207 (dsDNA)
DNA 1: GGCTCAAAACCACAGAGAAGCCTCCTATAGTGGGAT
DNA 2: ATCCCACTATAGGAGGCTTCTCTGTGGTTTTGAGCC
In the case of B18, the binding signal was 5720 PBM fluorescence, median of replicate spots.

B19: Table S3 B row 2442 (dsDNA)
DNA 1: GTGAAAAAGTCTGTGGTTTTGTTTCTTGAACACCTG
DNA 2: CAGGTGTTCAAGAAACAAAACCACAGACTTTTTCAC
Take B19: the binding signal was 9320 PBM fluorescence, median of replicate spots.

B20: Table S3 B row 2983 (dsDNA)
DNA 1: ACTCTGTGGTTTCATTGCCTGCCCGTAAATGCAGCT
DNA 2: AGCTGCATTTACGGGCAGGCAATGAAACCACAGAGT
Turning to B20, the binding signal was 5930 PBM fluorescence, median of replicate spots.

B21: Table S3 B row 2108 (dsDNA)
DNA 1: GCTCGTTTGTGGTTACTGACACCCGGCCTTCATTTC
DNA 2: GAAATGAAGGCCGGGTGTCAGTAACCACAAACGAGC
Take B21: the binding signal is 8520 PBM fluorescence, median of replicate spots.

B22: Table S3 B row 2890 (dsDNA)
DNA 1: CGGTCTGACCACAAACTCTGCCTTACGGCAAGGCTG
DNA 2: CAGCCTTGCCGTAAGGCAGAGTTTGTGGTCAGACCG
Consider B22, for which the binding signal was 5700 PBM fluorescence, median of replicate spots.

B23: Table S3 B row 1633 (dsDNA)
DNA 1: CCTTTACGTCCTTTTACTTCTAACCACAGAATTAAA
DNA 2: TTTAATTCTGTGGTTAGAAGTAAAAGGACGTAAAGG
For B23, the binding signal was 6510 PBM fluorescence, median of replicate spots.

B24: Table S3 B row 1205 (dsDNA)
DNA 1: TCAGCCTGTGGTTTCTGAAGACCTCCTCGAAGTCAT
DNA 2: ATGACTTCGAGGAGGTCTTCAGAAACCACAGGCTGA
As for B24, the binding signal is 6080 PBM fluorescence, median of replicate spots.

B25: Table S3 B row 2418 (dsDNA)
DNA 1: TTCTCTGCACTGCGGTTTACTCAGAAAGAAGACAAC
DNA 2: GTTGTCTTCTTTCTGAGTAAACCGCAGTGCAGAGAA
For the molecule B25, the binding signal is 10900 PBM fluorescence, median of replicate spots.

B26: Table S3 B row 586 (dsDNA)
DNA 1: CTTGTCCCTTGTGGTTTTTTGCATTTGCTGTTCCCT
DNA 2: AGGGAACAGCAAATGCAAAAAACCACAAGGGACAAG
In the case of B26, the binding signal was 7790 PBM fluorescence, median of replicate spots.

B27: Table S3 B row 601 (dsDNA)
DNA 1: GGTTCCTTGCGGTTCGCGGCGTGCCGGGCGTGACAA
DNA 2: TTGTCACGCCCGGCACGCCGCGAACCGCAAGGAACC
For the molecule B27, the binding signal is 5880 PBM fluorescence, median of replicate spots.

B28: Table S3 B row 1899 (dsDNA)
DNA 1: CCGCCGCGACCGCAGGCCTCCGTTCAGCCGGGGTAA
DNA 2: TTACCCCGGCTGAACGGAGGCCTGCGGTCGCGGCGG
Take B28: the binding signal was 6120 PBM fluorescence, median of replicate spots.

B29: Table S3 B row 2093 (dsDNA)
DNA 1: GTTAACCGCACTGCCGCTGGCTGGGTGTCCGCGGCA
DNA 2: TGCCGCGGACACCCAGCCAGCGGCAGTGCGGTTAAC
As to B29, the binding signal was 6840 PBM fluorescence, median of replicate spots.

B30: Table S3 B row 1412 (dsDNA)
DNA 1: GTCGCCCCCACCGCAAGTATTTCAGCTTCCCTCCGC
DNA 2: GCGGAGGGAAGCTGAAATACTTGCGGTGGGGGCGAC
Take B30: the binding signal is 6050 PBM fluorescence, median of replicate spots.

B31: Table S3 B row 2138 (dsDNA)
DNA 1: TGTGAAACCGCAGGGGTTCAGGGAGGCAGTGTAAGC
DNA 2: GCTTACACTGCCTCCCTGAACCCCTGCGGTTTCACA
Regarding B31, the binding signal is 11000 PBM fluorescence, median of replicate spots.

B32: Table S3 B row 1212 (dsDNA)
DNA 1: GCTTTTCTGTGGTTTTTCTCACACGGGAATTGAGAG
DNA 2: CTCTCAATTCCCGTGTGAGAAAAACCACAGAAAAGC
For the molecule B32, the binding signal is 8950 PBM fluorescence, median of replicate spots.

B33: Table S3 B row 1104 (dsDNA)
DNA 1: TTTCTGTGGTTTGGTTTCTATAGAGACACTTGCTGT
DNA 2: ACAGCAAGTGTCTCTATAGAAACCAAACCACAGAAA
On to B33, for which the binding signal was 8510 PBM fluorescence, median of replicate spots.

B34: Table S3 B row 3940 (dsDNA)
DNA 1: TCTCTAGTTCCCATTATTTCTGTGGTTAATTTCACC
DNA 2: GGTGAAATTAACCACAGAAATAATGGGAACTAGAGA
Turning to B34, the binding signal is 5800 PBM fluorescence, median of replicate spots.

B35: Table S3 B row 2134 (dsDNA)
DNA 1: CACCTTGTGGTTTCTCTGAGTGTCACACCTCCCCAG
DNA 2: CTGGGGAGGTGTGACACTCAGAGAAACCACAAGGTG
In the case of B35, the binding signal is 6600 PBM fluorescence, median of replicate spots.

B36: Table S3 B row 3061 (dsDNA)
DNA 1: CCTCTGCCCAACCACAATTTTCCCTTCGTCAGCCTT
DNA 2: AAGGCTGACGAAGGGAAAATTGTGGTTGGGCAGAGG
Turning to B36, the binding signal was 6030 PBM fluorescence, median of replicate spots.

B37: Table S3 B row 1277 (dsDNA)
DNA 1: GGGGTGCGGTTTAGGGCGGGTTTTTTGCGCCTTGGA
DNA 2: TCCAAGGCGCAAAAAACCCGCCCTAAACCGCACCCC
Take B37: the binding signal was 12400 PBM fluorescence, median of replicate spots.

B38: Table S3 B row 2945 (dsDNA)
DNA 1: GCTCCTCACTGCGGTCACAGCCACATGCTGCAGAGC
DNA 2: GCTCTGCAGCATGTGGCTGTGACCGCAGTGAGGAGC
For the molecule B38, the binding signal is 6290 PBM fluorescence, median of replicate spots.

B39: Table S3 B row 71 (dsDNA)
DNA 1: CCTTTGTTGTGGTTTTTGCAGAAAGAGAAGGGTTAG
DNA 2: CTAACCCTTCTCTTTCTGCAAAAACCACAACAAAGG
B39: the binding signal was 10300 PBM fluorescence, median of replicate spots.

B40: Table S3 B row 1736 (dsDNA)
DNA 1: CTCCTGTGGTTTCTAAACTGTCAGCATGTTGGCTTG
DNA 2: CAAGCCAACATGCTGACAGTTTAGAAACCACAGGAG
For the molecule B40, the binding signal was 6800 PBM fluorescence, median of replicate spots.

B41: Table S3 B row 3681 (dsDNA)
DNA 1: CGGCACCCTCCTTCGTCCCTGCCAACCGCCTCCACC
DNA 2: GGTGGAGGCGGTTGGCAGGGACGAAGGAGGGTGCCG
Regarding B41, the binding signal was 5850 PBM fluorescence, median of replicate spots.

B42: Table S3 B row 2012 (dsDNA)
DNA 1: TTTTTGTGTTTTTGTGGTTTCTTCCGATCTTAGTCA
DNA 2: TGACTAAGATCGGAAGAAACCACAAAAACACAAAAA
B42: the binding signal is 9430 PBM fluorescence, median of replicate spots.
